The results in this text go back to US20090136977A1 (published 2009).

The assay addresses affinity purified BACE1 (BACE1-myc, wild type) (UniProt P56817 22-501, limits assumed). Nature of the assay: cell-based or functional assay.

affinity purified BACE1 (BACE1-myc, wild type), sequence (P56817 22-501 limits assumed, form in doubt): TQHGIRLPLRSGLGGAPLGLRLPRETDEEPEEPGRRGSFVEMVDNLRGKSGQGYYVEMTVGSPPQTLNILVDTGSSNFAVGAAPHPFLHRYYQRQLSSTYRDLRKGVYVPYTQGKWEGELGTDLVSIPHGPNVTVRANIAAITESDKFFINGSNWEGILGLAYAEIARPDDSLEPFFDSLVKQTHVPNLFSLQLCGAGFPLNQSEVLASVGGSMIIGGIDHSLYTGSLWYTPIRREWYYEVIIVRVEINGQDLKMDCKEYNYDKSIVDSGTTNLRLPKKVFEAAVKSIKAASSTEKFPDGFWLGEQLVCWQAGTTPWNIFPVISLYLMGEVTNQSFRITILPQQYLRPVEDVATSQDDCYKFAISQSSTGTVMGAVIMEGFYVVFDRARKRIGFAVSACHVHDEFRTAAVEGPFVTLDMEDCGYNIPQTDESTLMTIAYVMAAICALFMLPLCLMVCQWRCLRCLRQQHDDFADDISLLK

B1: ATase2 (acetyltransferase 2) with a myc tag at the C-terminus (enzyme, not shown: small tags and cut ends)
chain: MAPCHIRKYQESDRQWVVGLLSRGMAEHAPATFRQLLKLPRTLILLLGGPLALLLVSGSWLLALVFSISLFPALWFLAKKPWTEYVDMTLCTDMSDITKSYLSERGSCFWVAESEEKVVGMVGALPVDDPTLREKRLQLFHLFVDSEHRRQGIAKALVRTVLQFARDQGYSEVILDTGTIQLSAMALYQSMGFKKTGQSFFCVWARLVALHTVHFIYHLPSSKVGSL
Turning to B1, the “acetylCoA:lysine acetyltransferase activity recovered from total cell extracts (acceptor: affinity purified BACE1)” value was roughly 3 fold.

B2: ATase1 (acetyltransferase 1) with a myc tag at the C-terminus (enzyme, not shown: small tags and cut ends)
chain: MAPYHIRKYQESDRKSVVGLLSRGMAEHAPATFRRLLKLPRTLILLLGGALALLLVSGSWILALVFSLSLLPALWFLAKKPWTRYVDIALRTDMSDITKSYLSECGSCFWVGESEEKVVGTVGALPVDDPTLREKRLQLFHLSVDNEHRGQGIAKALVRTVLQFARDQGYSEVVLDTSNIQLSAMGLYQSLGFKKTGQSFFHVWARLVDLHTVHFIYHLPSAQAGRL
Regarding B2, the “acetyltransferase activity recovered from cell extracts (acceptor: affinity purified BACE1)” value is roughly 2 fold.
